Assay results reported in PMC2885933 (The EMBO Journal, 2010).

Target: T1, ORF57-6xHis (Kaposi's sarcoma-associated herpesvirus …, UniProt Q2HR75 1-455)
T1 sequence: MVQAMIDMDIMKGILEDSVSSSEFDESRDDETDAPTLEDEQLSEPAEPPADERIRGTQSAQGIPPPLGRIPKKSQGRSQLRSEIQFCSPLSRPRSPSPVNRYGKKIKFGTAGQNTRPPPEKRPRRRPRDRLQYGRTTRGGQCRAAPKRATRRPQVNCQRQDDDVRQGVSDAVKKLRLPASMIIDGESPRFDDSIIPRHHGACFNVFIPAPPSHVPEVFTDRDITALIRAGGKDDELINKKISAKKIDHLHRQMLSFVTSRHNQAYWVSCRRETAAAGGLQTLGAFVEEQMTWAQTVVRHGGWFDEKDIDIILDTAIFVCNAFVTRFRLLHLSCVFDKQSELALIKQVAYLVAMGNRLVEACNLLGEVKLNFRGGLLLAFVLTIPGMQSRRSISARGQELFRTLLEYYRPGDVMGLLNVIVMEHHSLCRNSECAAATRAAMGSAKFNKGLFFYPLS
Experiment: pull-down

B1: GST-PYM (natural protein)
chain: not shown
- binding result: binds
